Target: CD63 on SH-SY5Y exosomes (UniProt P08962 2-238)
Assay: flow cytometry on exosome-coated microspheres; 200 nM probe; 5 mM Mg2+; about 10^3-fold (printed 103-fold) fluorescence over control and MU-Cy5; 1x PBS, 5 mM MgCl2, 0.2% BSA (w/v), 37 C, 1 h; exosome-coated microspheres blocked with glycine/BSA; pH not stated
Conditions: protein: native; label: 3' Cy5

Sequence of CD63 on SH-SY5Y exosomes (P08962 2-238): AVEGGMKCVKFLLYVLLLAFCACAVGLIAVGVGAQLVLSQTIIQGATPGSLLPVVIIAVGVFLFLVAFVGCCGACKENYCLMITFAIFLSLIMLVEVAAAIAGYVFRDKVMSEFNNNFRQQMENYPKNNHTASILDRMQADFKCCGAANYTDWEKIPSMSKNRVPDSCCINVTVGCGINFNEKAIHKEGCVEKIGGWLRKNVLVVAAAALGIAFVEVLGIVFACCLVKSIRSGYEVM

B1: Apt-CD63-Cy5 (ssDNA)
DNA: ATATACACCCCACCTCGCTCCCGTGACACTAATGCTATTTTTTTTTTTTTTTGACGCTAATAGTTAAGACGCT
B1: binds.

Source: publication PMC11117858, “APPROACH: Sensitive Detection of Exosomal Biomarkers by Aptamer-Mediated Proximity Ligation Assay and Time-Resolved Förster Resonance Energy Transfer”
